Here are results for eleven molecules from US8816055 (DYAX, dated 2014).

Assay [1] addresses T1, pKal catalytic domain Mutant 1 (human, UniProt P03952 391-638, limits assumed).
T1 construct: catalytic domain with His tag from Pichia pastoris
The assay can be described thus: Ki,app, enzyme inhibition.

Assay [2] deals with T2, pKal catalytic domain Mutant 2 (human, UniProt P03952 391-638, limits assumed).
T2 construct: catalytic domain with His tag from Pichia pastoris
The assay can be described thus: Ki,app, enzyme inhibition.

Assay [3] deals with pKal catalytic domain Mutant 4 (human, UniProt P03952 391-638). The assay can be described thus: Ki,app, enzyme inhibition.
Assay [4] concerns the target T3, human plasma kallikrein (active form) (human, UniProt P03952 20-390; P03952 391-638).
T3 construct: two disulfide linked chains; biotinylated in the ELISA; also called pKal; hpKal
The assay can be described thus: ELISA, biotinylated pKal / streptavidin background. An excerpt:
Abbreviations used: "T/B" is the ELISA signal obtained using of the "target" (biotinylated plasma kallikrein) divided by the ELISA signal of the "background" (streptavidin); both of which were coated on microtiter plates. "nd" is not determined. The symbol "q" refers to the amber suppressible stop codon (TAG), which is translated as glutamine (Q) in strains of E. coli such as the TG1 cells that were used to express the Fab fragments.
For orientation: In an ELISA, binding on a coated surface is turned into a signal by an enzyme label.

T1 sequence (P03952 other isoform, or with tags, fused parts or gaps mutant limits assumed): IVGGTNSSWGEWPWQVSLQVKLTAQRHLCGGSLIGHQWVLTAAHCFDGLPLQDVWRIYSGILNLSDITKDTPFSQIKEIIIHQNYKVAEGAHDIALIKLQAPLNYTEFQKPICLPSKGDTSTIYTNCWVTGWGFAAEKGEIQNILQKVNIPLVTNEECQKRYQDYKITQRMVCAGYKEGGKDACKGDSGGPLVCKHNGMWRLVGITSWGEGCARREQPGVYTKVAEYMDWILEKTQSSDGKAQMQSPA
Sequence of pKal catalytic domain Mutant 4 (P03952 other isoform, or with tags, fused parts or gaps mutant): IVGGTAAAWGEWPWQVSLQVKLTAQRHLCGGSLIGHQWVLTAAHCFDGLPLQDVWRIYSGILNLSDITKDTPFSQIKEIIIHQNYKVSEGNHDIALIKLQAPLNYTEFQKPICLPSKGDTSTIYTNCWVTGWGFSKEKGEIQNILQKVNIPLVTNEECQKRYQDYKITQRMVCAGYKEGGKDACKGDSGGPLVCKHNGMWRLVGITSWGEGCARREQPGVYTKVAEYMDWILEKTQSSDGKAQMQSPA
T2 sequence (P03952 other isoform, or with tags, fused parts or gaps mutant limits assumed): as the sequence (P03952 other isoform, or with tags, fused parts or gaps mutant) above, with A6N, A7S, A8S, R161A, Q163A, Y165A, T168A, R170A counted along it
T3 sequence (P03952 20-390, chain 1 of 2): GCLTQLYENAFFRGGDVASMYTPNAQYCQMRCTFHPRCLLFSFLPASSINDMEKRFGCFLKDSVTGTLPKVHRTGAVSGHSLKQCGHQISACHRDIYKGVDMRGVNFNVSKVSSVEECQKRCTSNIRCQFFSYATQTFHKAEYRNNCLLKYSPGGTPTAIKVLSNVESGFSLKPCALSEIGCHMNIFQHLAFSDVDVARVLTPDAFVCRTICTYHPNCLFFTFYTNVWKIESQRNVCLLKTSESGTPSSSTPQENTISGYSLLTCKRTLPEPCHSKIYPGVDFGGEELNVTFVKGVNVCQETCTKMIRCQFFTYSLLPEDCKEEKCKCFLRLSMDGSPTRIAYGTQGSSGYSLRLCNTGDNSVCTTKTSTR
T3 sequence (P03952 391-638, chain 2 of 2): as the sequence (P03952 other isoform, or with tags, fused parts or gaps mutant) above, with A6N, A7S, A8S counted along it

B1: X115-F02 (Fab, V domains shown)
VH: EVQLLESGGGLVQPGGSLRLSCAASGFTFSHYIMMWVRQAPGKGLEWVSGIYSSGGITVYADSVKGRFTISRDNSKNTLYLQMNSLRAEDTAVYYCAYRRIGVPRRDEFDIWGQGTMVTVSS
VL: DIQMTQSPSTLSASVGDRVTITCRASQSISSWLAWYQQKPGKAPKLLIYKASTLESGVPSRFSGSGSGTEFTLTISSLQPDDFATYYCQQYNTYWTFGQGTKVEIK
notes: also called 559A-X115-F02; 559A-X0115-F02
For B1, the figures for the Ki in assay [1], in assay [2] and in assay [3] were 0.14 nM, 5.9 nM and 0.1 nM, respectively.

B2: X115-G04 (antibody, V domains shown)
VH: EVQLLESGGGLVQPGGSLRLSCAASGFTFSHYIMMWVRQAPGKGLEWVSGIYSSGGITVYADSVKGRFTISRDNSKNTLYLQMNSLRAEDTAVYYCAYRRTGVPRRDEFDIWGQGTMVTVSS
VL: DIQMTQSPSTLSASVGDRVTITCRASQSISSWLAWYQQKPGKAPKLLIYKASTLESGVPSRFSGSGSGTEFTLTISSLQPDDFATYYCQQYNTYWTFGQGTKVEIK
notes: also called 559A-X115-G04; 559A-X0115-G04
On to B2, for which the Ki in assay [1] is 0.4 nM; in assay [2], 2.2 nM; in assay [3], 0.3 nM.

B3: X115-A03 (antibody, V domains shown)
VH: EVQLLESGGGLVQPGGSLRLSCAASGFTFSHYIMMWVRQAPGKGLEWVSGIYSSGGITVYADSVKGRFTISRDNSKNTLYLQMNSLRAEDTAVYYCAWRRIGVPRRDSFDMWGQGTMVTVSS
VL: DIQMTQSPSTLSASVGDRVTITCRASQSISSWLAWYQQKPGKAPKLLIYKASTLESGVPSRFSGSGSGTEFTLTISSLQPDDFATYYCQQYNTYWTFGQGTKVEIK
notes: also called 559A-X115-A03; 559A-X0115-A03
As for B3, the Ki in assay [1] was 0.23 nM; in assay [2], 3.7 nM; in assay [3], 0.13 nM.

B4: X115-D01 (antibody, V domains shown)
VH: EVQLLESGGGLVQPGGSLRLSCAASGFTFSIYSMHWVRQAPGKGLEWVSSIYPSRGMTWYADSVKGRFTISRDNSKNTLYLQMNSLRAEDTAVYYCAYRRTGIPRRDAFDIWGQGTMVTVSS
VL: DIQMTQSPSTLSASVGDRVTITCRASQSISSWLAWYQQKPGKAPKLLIYKASTLESGVPSRFSGSGSGTEFTLTISSLQPDDFATYYCQQYNTYWTFGQGTKVEIK
notes: also called 559A-X115-D01; 559A-X0115-D01
As to B4, the Ki in assay [1] came to 0.26 nM; in assay [2], 2.5 nM; in assay [3], 0.12 nM.

B5: M29-D09 (Fab, V domains shown)
VH: EVQLLESGGGLVQPGGSLRLSCAASGFTFSWYTMVWVRQAPGKGLEWVSYIYPSGGATFYADSVKGRFTISRDNSKNTLYLQMNSLRAEDTAVYYCAMGSYDYIWGFYSDHWGQGTLVTVSS
VL: QSALTQPPTVSVSPGQTARITCSGNKLGDKYVAWYQQKPGQSPMLVIYQDTKRPSRVSERFSGSNSANTATLSISGTQALDEADYYCQAWDSSIVIFGGGTRLTVL
notes: also called 559A-M29-D09 (sFab); 559A-M0029-D09
As to B5, the figures for the Ki in assay [1], in assay [2] and in assay [3] were 0.27 nM, 0.34 nM and 0.39 nM, respectively.

B6: M28-D02 (Fab, V domains shown)
VH: EVQLLESGGGLVQPGGSLRLSCAASGFTFSWYPMQWVRQAPGKGLEWVSYIYPSGGGTDYADSVKGRFTISRDNSKNTLYLQMNSLRAEDTATYYCATSSGWLGDAFDIWGQGTMVTVSS
VL: DIQMTQSPSSLSASEGDMVTITCRTSRRIGTYLNWYQQKPGKAPKLLIYGASSLQSGVPSRFSGSGSGTDFTLTVSSLQPEDVGTYYCQQSFSSPWTFGPGTKVEIK
With B6, in assay [4], the “ELISA (T/B)” value was determined as 3.7 T/B.

B7: M145-D11 (Fab, V domains shown)
VH: EVQLLESGGGLVQPGGSLRLSCAASGFTFSHYRMSWVRQAPGKGLEWVSSIYPSGGRTVYADSVKGRFTISRDNSKNTLYLQMNSLRAEDTAVYYCAKDKFEWRLLFRGIGNDAFDIWGQGTMVTVSS
VL: QSVLTQPPSVSVSPGQTASITCSGDKLGDKYTSWYQQRPGQSPVLVIYQDIKRPSGIPERFSGSNSGNTATLTISGTQAMDEADYYCQAWDSPNARVFGSGTKVTVL
notes: also called 559A-M145-D11 (sFab); 559A-M0145-D11
Consider B7, for which the figures for the Ki in assay [1], in assay [2] and in assay [3] were 0.23 nM, 0.1 nM and 0.21 nM, respectively.

B8: X101-A01 (antibody, V domains shown)
VH: EVQLLESGGGLVQPGGSLRLSCAASGFTFSHYLMTWVRQAPGKGLEWVSYISPSGGHTIYADSVKGRFTISRDNSKNTLYLQMNSLRAEDTAVYYCARVARGIAARSRTSYFDYWGQGTLVTVSS
VL: EIVLTQSPGTLSLSPGERATLSCRTSQFVNSNYLAWYQQKPGQAPRLLIYGASSRATGIPDRFSGSGSGTDFTLTISRLEPEDFAVYYCQQSSRTPWTFGQGTKVEIK
notes: also called 559A-X0101-A01
As to B8, the Ki was 14 nM in assay [1], 20 nM in assay [2] and 0.25 nM in assay [3].

B9: X115-B07 (antibody, V domains shown)
VH: EVQLLESGGGLVQPGGSLRLSCAASGFTFSHYLMTWVRQAPGKGLEWVSYISPSGGHTIYADSVKGRFTISRDNSKNTLYLQMNSLRAEDTAVYYCAMVGQGIRGRSRTSYFAQWGQGTLVTVSS
VL: EIVLTQSPGTLSLSPGERATLSCRTSQFVNSNYLAWYQQKPGQAPRLLIYGASSRATGIPDRFSGSGSGTDFTLTISRLEPEDFAVYYCQQSSRTPWTFGQGTKVEIK
notes: also called 559A-X115-B07; 559A-X0115-B07
Turning to B9, the figures for the Ki in assay [1], in assay [2] and in assay [3] were 4.7 nM, 47 nM and 0.14 nM, respectively.

B10: M35-G04 (Fab, V domains shown)
VH: EVQLLESGGGLVQPGGSLRLSCAASGFTFSYYHMSWVRQAPGKGLEWVSVISPSGGSTKYADSVKGRFTISRDNSKNTLYLQMNSLRAEDTAVYYCARGGSSDYAWGSYRRPYYFDYWGQGTLVTVSS
VL: DIQMTQSPATLSLSPGERATLSCRASQSVSSYLAWYQQKPGQAPRLLIYDASNRATGIPARFSGSGSGTDFTLTISSLEPEDFAVYYCQQRSNWPRGFTFGPGTKVDIK
notes: also called 559A-M35-G04; 559A-M0035-G04
Consider B10, for which the Ki turned out to be 0.09 nM in assay [1], 1.1 nM in assay [2] and 0.8 nM in assay [3].

B11: M6-D09 (Fab, V domains shown)
VH: EVQLLESGGGLVQPGGSLRLSCAASGFTFSFYYMVWVRQAPGKGLEWVSVIYPSGGITVYADSVKGRFTISRDNSKNTLYLQMNSLRAEDTAVYYCARDKWAVMPPYYYYAMDVWGQGTTVTVSS
VL: DIQMTQSPSSLSASVGDRVTITCRASQSIRNYLNWYQQKPGKAPNLLIYAASTLQSGVPARFSGSGSGTDFTLTISSLQPEDFATYYCQQLSGYPHTFGQGTKLEIK
notes: also called M06-D09; 559A-M06-D09
Turning to B11, the figures for the Ki in assay [1], in assay [2] and in assay [3] were 3.4 nM, 13.5 nM and 2.9 nM, respectively.
